From article PMC10333379

Molecular target: human angiotensin-converting enzyme 2 (hACE2) with an Fc domain (human) (UniProt Q9BYF1)
Test: BLI

UniProt Q9BYF1, sequence (Q9BYF1 18-740): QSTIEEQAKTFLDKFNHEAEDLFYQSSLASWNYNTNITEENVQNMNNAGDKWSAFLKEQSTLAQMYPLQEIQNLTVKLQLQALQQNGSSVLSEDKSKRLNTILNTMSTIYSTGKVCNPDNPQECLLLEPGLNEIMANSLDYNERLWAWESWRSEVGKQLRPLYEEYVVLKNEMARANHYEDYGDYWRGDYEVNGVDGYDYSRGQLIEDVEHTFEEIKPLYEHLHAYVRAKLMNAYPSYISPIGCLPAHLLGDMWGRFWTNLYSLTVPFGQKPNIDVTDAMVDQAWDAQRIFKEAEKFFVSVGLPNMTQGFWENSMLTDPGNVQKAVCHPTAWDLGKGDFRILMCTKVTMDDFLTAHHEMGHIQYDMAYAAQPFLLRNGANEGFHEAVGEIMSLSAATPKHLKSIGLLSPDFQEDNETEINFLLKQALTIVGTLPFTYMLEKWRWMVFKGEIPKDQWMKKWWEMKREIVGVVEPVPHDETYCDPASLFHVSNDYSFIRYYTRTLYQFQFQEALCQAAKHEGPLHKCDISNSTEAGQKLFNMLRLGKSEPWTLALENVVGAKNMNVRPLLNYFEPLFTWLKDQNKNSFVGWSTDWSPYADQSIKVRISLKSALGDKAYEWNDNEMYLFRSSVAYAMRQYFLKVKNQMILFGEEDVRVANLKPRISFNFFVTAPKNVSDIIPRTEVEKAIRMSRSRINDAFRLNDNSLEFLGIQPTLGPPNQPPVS

## Bat SARS-like coronavirus CX1 receptor-binding domain (RBD) of spike protein (domain or fragment)
  Kd: 10.7 nM
